Reference: the supplement of paper PMC12764529
± gives the half width of the 95% confidence interval.

Key:
[1] = folding stability dG unfold from chymotrypsin proteolysis; higher = more stable
In short: (§1)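 Designed mini-proteins (under 80 residues, no cysteine) in a PA-tagged cDNA display construct were digested with trypsin and chymotrypsin. Each protease was used at 11 concentrations (threefold dilutions) plus a no-protease condition, followed by sequencing. K50 was inferred by Bayesian fitting of sequencing counts, and unfolding free energy was derived against a sequence-predicted unfolded-state K50 and a shared folded-state K50, per protease or combined. Only designs with AlphaFold2 dimer inter-PAE above 15 were kept.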

[2] = folding stability dG unfold from trypsin proteolysis; higher = more stable
In short: as §1

[3] = folding stability dG unfold (combined trypsin and chymotrypsin); higher = more stable
In short: as §1

Sequence | folding stability dG unfold [1] [kcal/mol] | folding stability dG unfold [2] [kcal/mol] | folding stability dG unfold [3] [kcal/mol]
SMTITIERPVPPELTDRPLSLELPLPNGSTVSVKVETSPTTATVTITTNDPSLEAEVKARVEELLARLLASA [r9_790_JUSTAS] | 2.058 ± 0.02 | 2.56 ± 0.094 | 2.27 ± 0.1
SMTLEEAKEIAEKNPDIPVALIFPGKKLIYIYHPKSGKWEVKPVTSIEEAIEALEKEDIDAIFIVPAELDSA [r9_775_TrMRF] | 3.93 ± 0.087 | 4.54 ± 0.44 | 4.06 ± 0.16
SMTLITLTDPVTNVPVEKVEVRKLEDGTYEATVTTKEPSKTTTKTYPLPPDEKITDVLKSLGLKEAEINLSA [r9_492_JUSTAS] | 0.538 ± 0.093 | 0.255 ± 0.036 | 0.445 ± 0.17
SMTLPANAKAKVTVLVLFYDPETGEATLVKVDYTATFKPDDKGNLVVEVEPSKIEFIGPISLEEAKKIAGSA [r9_423_TrMRF] | 2.11 ± 0.058 | 2.57 ± 0.15 | 2.55 ± 0.21
SMTLTIDLDPSVPYLVRIHFVNEDGEPYEADALTTRTPDGTAFVDIALPDDSIPPGADIKILSVEVIPLDSA [r9_359_TrMRF] | 2.1 ± 0.054 | 1.63 ± 0.019 | 1.96 ± 0.051
SMTPEEARALAEAIAAERAAAGYATEMELTVTPVNGVPVATFRFRFTDAAGRATEFTVTVAPDGTVTFTPSA [r9_1027_JUSTAS] | 3.814 ± 0.031 | 3.34 ± 0.089 | 3.64 ± 0.08
SMTTRESTIDASIPGYTVSKVSVTTLPGGERKITITLPSGKVLVLSTPADPALVPLTVTSEFSPEEVAAKSA [r9_1075_JUSTAS] | 0.0702 ± 0.097 | 0.634 ± 0.057 | 0.395 ± 0.051
SMTVSNPRGKTVTVTVTVTVDPNKKSVTVPVTIRTAGEELTFTFTVPKGVNKPVTFSLTVPLPPGSSVISSA [r9_973_JUSTAS] | 4.02 ± 0.059 | 3 ± 0.093 | 3.63 ± 0.089
SMTVVIDIPPEVPVPGSGSVRPVPVEEVLKRVEEAMAKGKKVVVTGRDPKHPLVQEVAARLEELGVEVVGSA [r9_468_JUSTAS] | 0.71 ± 0.016 | 0.342 ± 0.029 | 0.59 ± 0.054
SMVEKLPDGTTVIKGELPLDVSIEDVLAKLPDLKLASRTSETDPATGKRYYTFIVKPDGTVDVTSEPKLLSA [r9_238_JUSTAS] | 1.21 ± 0.091 | 0.645 ± 0.027 | 0.957 ± 0.045
SMVFTLPGGIEIKVEPEEDSYRFVIELPSGERLEVPVPPENLEEFIRELIRKALEIANPNITEEEIEKLASA [r9_634_TrMRF] | 4.02 ± 0.09 | 3.22 ± 0.26 | 3.59 ± 0.29
SMVIEPKPDGTVTVTLPSSLPDLPREEVEAIVREALPPGASLGDSITVSRDPETGEVTVTAPVKFPPELASA [r9_1011_JUSTAS] | 0.544 ± 0.025 | 1.55 ± 0.076 | 1.03 ± 0.084
SMVIPPGSRAEFRLEDVPVRLEVEEGSGKVHFRVFSPENPDEEVFEAEFDINDLKPLDLPPELREAFEKESA [r9_1051_TrMRF] | 1.18 ± 0.32 | 0.652 ± 0.057 | 0.955 ± 0.18
SMVITLPVEDEEKLKELLDELKEQLEKAEEEGLETVTITITLEDGETLEITIDKNMTVEELLEQLEKALESA [r9_127_TrROS_Hall] | 1.57 ± 0.12 | 3.22 ± 0.33 | 2.61 ± 0.29
SMVKIYFPNAPPELVAEAIEKHPDSTVEIYFEPGKPDVFESILKDYDVEVEPFPTEDGRLLVKARVKVPGSA [r9_1138_TrMRF] | 1.32 ± 0.12 | 2.11 ± 0.13 | 1.74 ± 0.29
SMVVIEVEPNPETNSLTAKVYLPKDGKKVVEIERSPDGTVKVTVYYKDGSKEEFTFPEDIPIEEAIKKAISA [r9_346_TrMRF] | 1.1 ± 0.13 | 1.16 ± 0.037 | 1.15 ± 0.095
SMVVPVLIEKPYTSPEELEEFKKEAEELVKKLAEETGYPIKVLETKYTTDPNTNVVSLTLVVEIVSPELNSA [r9_105_JUSTAS] | 2.6 ± 0.14 | 1.97 ± 0.1 | 2.45 ± 0.17
SMVYVFEVPEGDPEKAEELIRAKLEEEFGYKVESVATPGGGGARVVLVVDPVEDKAYAEVIPFAPDGSPASA [r9_173_TrMRF] | 1.15 ± 0.2 | -0.529 ± 0.21 | 0.618 ± 0.16

Sequence | folding stability dG unfold [1] [kcal/mol] | folding stability dG unfold [2] [kcal/mol] | folding stability dG unfold [3] [kcal/mol]
SMYTTVTVEVDITLADKTPDGTWTPVGTFPIKVTVTVPESRPEEAREEALARARAEVEAFAASRGLTVVVSA [r9_356_JUSTAS] | 2.21 ± 0.043 | 1.76 ± 0.043 | 2.07 ± 0.079
SMYYLVTITVTIRKDGKPVSVTPIYLAVPPEKAEEVAAEIKKSHPDLEVTITMEVTEVSEDDEEVKELLKSA [r9_782_JUSTAS] | 3.36 ± 0.085 | 1.92 ± 0.13 | 2.79 ± 0.19
SNEPPVIEIKFRIDEVQPMNGQPMIMFEITEIEDAPPEIQDLLKNGYYIMIHMPPGEPLKEGEEFEIHIFSA [r9_557_TrROS] | 2.75 ± 0.12 | 1.34 ± 0.09 | 2.01 ± 0.3
SNKIDKRIVSVTFYESLPNGSVKVNNLVFISTSDGKVRLVNAGEITIPLGDKTLSINIGEASSNVKLGKISA [r9_1113_TrMRF] | 1.52 ± 0.032 | 1.01 ± 0.034 | 1.37 ± 0.041
SNKKWRTIELDFWFRTPEQAREWANNLARRLPPDNIDSISVEVEPFPVRKNGEPVGPVYRFKLTIMVRPESA [r9_605_TrROS] | 2.82 ± 0.032 | 2.33 ± 0.062 | 2.6 ± 0.091
SNLMIHFENPDNGVRVMIQINPEHGRIKLSVMYPNGKPVAEQTIEVDPNKIRLRFKVGGRKFEIEIEIPESA [r9_385_TrROS] | 5.6 ± 0.29 | 4.32 ± 0.19 | 5.62 ± 0.54
SNNKRITIEIPFPMPAEQARNFMEAFGIKKIEYEKHDDPGYYRVKYTVPDDNVTIDIHIFPPPVPPGQKPSA [r9_1090_TrROS] | 1.83 ± 0.15 | 1.23 ± 0.024 | 1.67 ± 0.13
SNPNEPLTAEEIAKHIEEFMQEEHGIDKIKPEEFTVNPPDGYIKVEMEIEHKNPPGQKHKIDIWIPPDDLSA [r9_1002_TrROS] | 0.0346 ± 0.14 | 0.0662 ± 0.22 | < -1
SNWITLKHTIKHPGREIKIEITAQPNPGGPYWIQVNIEVRDPNGEKEEVEITVPFRGMSIEDFLKNAADASA [r9_217_TrROS] | 4.46 ± 0.062 | 2.85 ± 0.12 | 3.78 ± 0.29
SPAGELVSSTFPVTVTVTVWRRLPDGTWTPVGTETFTVTVTVAGIPEEVAEALRKAAETPPPPPNLAGLLSA [r9_1192_TrMRF] | 1.82 ± 0.049 | 1.98 ± 0.028 | 1.93 ± 0.054
SPEIKIEVFKNEDGEEIFIKIEVPPGWRIRIIYNGKEIEEIEVDGYRIRFEEVDGKLRIEVEPLPPGEKPSA [r9_221_TrROS_Hall] | 5.48 ± 0.15 | 3.87 ± 0.081 | 5.2 ± 0.27
SPIVKVRLRIELPDGKVLELELDVPLPLIKEALSKLIGEKYKVKIVKIDPIDPEKLKPGSTIEITLKAEPSA [r9_803_TrMRF] | 4.76 ± 0.14 | 3.72 ± 0.28 | 4.59 ± 0.2
SPKGIYIFMIQVKWKNPNGNEWTFPIMVPMDEMPEEELRDFIREFFPGFDDVDIEPQVMRIPPSPEAREKSA [r9_841_TrROS] | 2.75 ± 0.17 | 2.3 ± 0.16 | 2.57 ± 0.28
SPLELPSDEEITVNAEVLILPYNPETGEIEDEIPIPLPVKIKVKKDGSVEIEIDIPDSIPENVPIVLLLKSA [r9_90_TrMRF] | 1.81 ± 0.14 | 1.29 ± 0.062 | 1.52 ± 0.19
SPLKEGDTLTFTLPVPDLPNVRIEIDLHFYKDPNTDRYRVLANITVYYGDKPVTFSIEMPVDTFLDLLKSSA [r9_71_TrMRF] | 2.34 ± 0.12 | 2.99 ± 0.24 | 2.87 ± 0.18
SPLKPNDIRPIKFTSPIRNPDNGRPFRIKVEIWVMPEDPMVIIKDEIEPPNGRTREHTFWIPPGQKIEIPSA [r9_88_TrROS] | 0.358 ± 0.33 | 0.261 ± 0.13 | 0.295 ± 0.3
SPNFRISPEIKNAIKRALKENEPGKKVEIRMRYPDGPTIMISIDKPGSINIEVEPDPGKPIMEFEFDIKDSA [r9_132_TrROS] | 0.825 ± 0.069 | 0.732 ± 0.079 | 0.873 ± 0.16
SPPFKIKEIKIEIFPNGTVKIEYRFPSSGHYVKFSIPVDPKKGRIPINMEIYNPDNGKVWEFSATIRIKKSA [r9_825_TrROS] | 4.86 ± 0.077 | 3.34 ± 0.17 | 4.69 ± 0.2
